B1: ZNF649 (parent)
chain: LTEHKRIHTGKKPHVCSLCGKAFY

Variants of: B1
Test: protein stability index of a GFP-peptide fusion (GPS, HEK-293T) (PSI 1-6); higher = more stable
Conditions: c terminus: a fixed tail appended
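Note: lentivirally expressed fusions sorted by FACS into six bins by GFP to DsRed ratio, PSI derived from sequencing read proportions per bin multiplied by bin number.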

Variant | protein stability index
LTEHKRCHTGKKPHVCSLCGKAFY [I7C] | 2.6
LTEHKRDHTGKKPHVCSLCGKAFY [I7D] | 2.31
LTEHKREHTGKKPHVCSLCGKAFY [I7E] | 2.71
LTEHKRFHTGKKPHVCSLCGKAFY [I7F] | 2.18
LTEHKRGHTGKKPHVCSLCGKAFY [I7G] | 2.78
LTEHKRHHTGKKPHVCSLCGKAFY [I7H] | 2.16
LTEHKRKHTGKKPHVCSLCGKAFY [I7K] | 1.98
LTEHKRLHTGKKPHVCSLCGKAFY [I7L] | 3.11
LTEHKRMHTGKKPHVCSLCGKAFY [I7M] | 2.4
LTEHKRNHTGKKPHVCSLCGKAFY [I7N] | 2.85
LTEHKRPHTGKKPHVCSLCGKAFY [I7P] | 2.38
LTEHKRQHTGKKPHVCSLCGKAFY [I7Q] | 2.73
LTEHKRRHTGKKPHVCSLCGKAFY [I7R] | 3.93
LTEHKRSHTGKKPHVCSLCGKAFY [I7S] | 3.72
LTEHKRTHTGKKPHVCSLCGKAFY [I7T] | 2.71
LTEHKRVHTGKKPHVCSLCGKAFY [I7V] | 2.58
LTEHKRWHTGKKPHVCSLCGKAFY [I7W] | 2.5
LTEHKRIATGKKPHVCSLCGKAFY [H8A] | 2.86
LTEHKRICTGKKPHVCSLCGKAFY [H8C] | 3.2
LTEHKRIDTGKKPHVCSLCGKAFY [H8D] | 2.67
LTEHKRIETGKKPHVCSLCGKAFY [H8E] | 3.25
LTEHKRIFTGKKPHVCSLCGKAFY [H8F] | 2.71
LTEHKRIGTGKKPHVCSLCGKAFY [H8G] | 2.13
LTEHKRIITGKKPHVCSLCGKAFY [H8I] | 2.17

Variant | protein stability index
LTEHKRIKTGKKPHVCSLCGKAFY [H8K] | 2.14
LTEHKRILTGKKPHVCSLCGKAFY [H8L] | 2.29
LTEHKRIMTGKKPHVCSLCGKAFY [H8M] | 2.49
LTEHKRIPTGKKPHVCSLCGKAFY [H8P] | 4.21
LTEHKRIQTGKKPHVCSLCGKAFY [H8Q] | 3.1
LTEHKRIRTGKKPHVCSLCGKAFY [H8R] | 4.2
LTEHKRITTGKKPHVCSLCGKAFY [H8T] | 2.58
LTEHKRIVTGKKPHVCSLCGKAFY [H8V] | 2.18
LTEHKRIWTGKKPHVCSLCGKAFY [H8W] | 2.06
LTEHKRIYTGKKPHVCSLCGKAFY [H8Y] | 2.89
LTEHKRIHAGKKPHVCSLCGKAFY [T9A] | 2.04
LTEHKRIHCGKKPHVCSLCGKAFY [T9C] | 2.32
LTEHKRIHDGKKPHVCSLCGKAFY [T9D] | 3.3
LTEHKRIHEGKKPHVCSLCGKAFY [T9E] | 2.98
LTEHKRIHFGKKPHVCSLCGKAFY [T9F] | 2.8
LTEHKRIHGGKKPHVCSLCGKAFY [T9G] | 2.8
LTEHKRIHHGKKPHVCSLCGKAFY [T9H] | 3.04
LTEHKRIHIGKKPHVCSLCGKAFY [T9I] | 1.87
LTEHKRIHKGKKPHVCSLCGKAFY [T9K] | 2.35
LTEHKRIHLGKKPHVCSLCGKAFY [T9L] | 2.51
LTEHKRIHMGKKPHVCSLCGKAFY [T9M] | 2.85
LTEHKRIHPGKKPHVCSLCGKAFY [T9P] | 2.85
LTEHKRIHQGKKPHVCSLCGKAFY [T9Q] | 2.31
LTEHKRIHRGKKPHVCSLCGKAFY [T9R] | 2.45

Variant | protein stability index
LTEHKRIHSGKKPHVCSLCGKAFY [T9S] | 3.36
LTEHKRIHVGKKPHVCSLCGKAFY [T9V] | 3.62
LTEHKRIHWGKKPHVCSLCGKAFY [T9W] | 3.49
LTEHKRIHYGKKPHVCSLCGKAFY [T9Y] | 2.3
LTEHKRIHTAKKPHVCSLCGKAFY [G10A] | 2.78
LTEHKRIHTCKKPHVCSLCGKAFY [G10C] | 3.76
LTEHKRIHTDKKPHVCSLCGKAFY [G10D] | 2.63
LTEHKRIHTEKKPHVCSLCGKAFY [G10E] | 3.6
LTEHKRIHTFKKPHVCSLCGKAFY [G10F] | 3.73
LTEHKRIHTHKKPHVCSLCGKAFY [G10H] | 2.16
LTEHKRIHTIKKPHVCSLCGKAFY [G10I] | 2.49
LTEHKRIHTKKKPHVCSLCGKAFY [G10K] | 2.96
LTEHKRIHTLKKPHVCSLCGKAFY [G10L] | 2.27
LTEHKRIHTMKKPHVCSLCGKAFY [G10M] | 3.35
LTEHKRIHTNKKPHVCSLCGKAFY [G10N] | 1.98
LTEHKRIHTPKKPHVCSLCGKAFY [G10P] | 3.22
LTEHKRIHTQKKPHVCSLCGKAFY [G10Q] | 2.28
LTEHKRIHTSKKPHVCSLCGKAFY [G10S] | 2.19
LTEHKRIHTTKKPHVCSLCGKAFY [G10T] | 2.83
LTEHKRIHTVKKPHVCSLCGKAFY [G10V] | 2.28
LTEHKRIHTWKKPHVCSLCGKAFY [G10W] | 2.97
LTEHKRIHTYKKPHVCSLCGKAFY [G10Y] | 2.45
LTEHKRIHTGAKPHVCSLCGKAFY [K11A] | 2.32
LTEHKRIHTGCKPHVCSLCGKAFY [K11C] | 2.43

Variant | protein stability index
LTEHKRIHTGDKPHVCSLCGKAFY [K11D] | 3.21
LTEHKRIHTGEKPHVCSLCGKAFY [K11E] | 3.4
LTEHKRIHTGFKPHVCSLCGKAFY [K11F] | 2.79
LTEHKRIHTGGKPHVCSLCGKAFY [K11G] | 2.54
LTEHKRIHTGHKPHVCSLCGKAFY [K11H] | 2.23
LTEHKRIHTGIKPHVCSLCGKAFY [K11I] | 2.77
LTEHKRIHTGLKPHVCSLCGKAFY [K11L] | 2.96
LTEHKRIHTGMKPHVCSLCGKAFY [K11M] | 2.56
LTEHKRIHTGNKPHVCSLCGKAFY [K11N] | 2.35
LTEHKRIHTGPKPHVCSLCGKAFY [K11P] | 2.76
LTEHKRIHTGQKPHVCSLCGKAFY [K11Q] | 3.01
LTEHKRIHTGRKPHVCSLCGKAFY [K11R] | 1.76
LTEHKRIHTGSKPHVCSLCGKAFY [K11S] | 2.43
LTEHKRIHTGTKPHVCSLCGKAFY [K11T] | 2.62
LTEHKRIHTGVKPHVCSLCGKAFY [K11V] | 2.88
LTEHKRIHTGWKPHVCSLCGKAFY [K11W] | 3.42
LTEHKRIHTGYKPHVCSLCGKAFY [K11Y] | 2.5
LTEHKRIHTGKAPHVCSLCGKAFY [K12A] | 2.44
LTEHKRIHTGKCPHVCSLCGKAFY [K12C] | 2.81
LTEHKRIHTGKDPHVCSLCGKAFY [K12D] | 3.14
LTEHKRIHTGKEPHVCSLCGKAFY [K12E] | 2.75
LTEHKRIHTGKFPHVCSLCGKAFY [K12F] | 2.32
